pKd: −log10 of the molar value.
Target: biotinylated human neonatal Fc receptor (FcRn) (human) (UniProt P55899)
Test: BLI

Row | Substance | pKd
1 | AlbuCORE_1 scaffold (split human serum albumin, split site 339-340) (complex) | 6.72
2 | AlbuCORE_2 scaffold (split human serum albumin, split site 300-301) (complex) | 6.24
3 | AlbuCORE_3 scaffold (split human serum albumin, split site 364-365) (complex) | 6.12
4 | AlbuCORE_4 scaffold (split human serum albumin, split site 441-442) (complex) | 6.01
5 | AlbuCORE_6 scaffold (split human serum albumin, deletion of residue 84) (complex) | 5.80
6 | AlbuCORE_7 scaffold (split human serum albumin, split site 171-172) (complex) | 5.78
7 | AlbuCORE_9 scaffold (split human serum albumin, split site 281-282) (complex) | 5.90

Reference: article PMC7531512
